# Experimental data as given in the RNAGym collection of RNA variant scans (doi:10.1093/nar/gkz1192).
# B1: CPEB3 Ribozyme (parent)
# chain: UAACAGGGGGCCACAGCAGAAGCGUUCACGUCGCAGCCCCUGUCAGAUUCUGGUGAAUCUGCGAAUUCUGCUGUAUAUCUC
# Variants of: B1
# Assay: self-cleavage, relative activity (ratio to wild type); higher = more cleavage; in vitro, sequencing
# How it was run: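 Relative activity was defined as the cleaved/total read fraction for a variant divided by the same fraction for the unmutated ribozyme. CPEB3 self-cleaving ribozyme libraries were made by rounds of error-prone PCR, barcoded, and transcribed in vitro with T7 RNA polymerase for 5 hours at 37°C, and cleavage ran through transcription plus a 15 min DNase I step before EDTA. Illumina sequencing of template-switched reverse transcripts gave the reads, and DNA sequencing mapped the barcodes. Averages come from three batches, using variants with at least 5 reads.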
row,Variant,self-cleavage
1,A21U U72G,0.17
2,A21U C68A,0.32
3,A21U C68U,0.44
4,G22U A75G,0.39
5,G22U A75C,0.23
6,G22U A75U,0.26
7,C23G A45G,0.21
8,C23G U69A,0.12
9,C23G U69C,0.08
10,C23U U41A,0.12
11,C23U U41C,0.27
12,C23G U72A,0.04
13,C23G U72C,0.13
14,G22A A75U,0.37
15,G22A U43G,0.09
16,G22A U43A,0.38
17,G22A U74C,0.5
18,A21U U66A,1.12
19,A21U U66C,0.33
20,G22U U41A,0.17
21,G22U U41C,0.27

row,Variant,self-cleavage
1,C23A U60G,0.06
2,C23A U60C,0.33
3,C23A U60A,0.19
4,G22U U66G,0.17
5,G22U U66C,0.52
6,C23G C39U,0.08
7,A21U U58C,0.12
8,A21U U58A,0.37
9,G22C A56U,0.14
10,G22C A56G,0.21
11,C23U C34U,0.36
12,C23A U67A,0.16
13,C23A U67C,0.17
14,C23A C39U,0.23
15,G22C G52C,0.2
16,A21U U76C,0.27
17,A21U U76A,0.45
18,C23U A75G,0.27
19,C23A U80A,0.23
20,C23A U80G,0.51
21,C23A U80C,0.12

row,Variant,self-cleavage
1,G22A A64G,0.24
2,G22A A64U,0.32
3,G22A A56G,0.17
4,A21U G63C,0.28
5,A21U G63U,0.28
6,A21U G63A,0.5
7,C23A U69C,0.12
8,C23U G70A,0.17
9,C23U C44A,0.38
10,A21U U48C,0.27
11,G22C U31A,0.12
12,C23A U54C,0.18
13,C23U A35U,0.16
14,C23U A35G,0.95
15,C23G A47G,0.28
16,A21U U80A,0.44
17,A21U U80C,0.53
18,C23A U49A,0.25
19,C23G C29U,0.36
20,C23G C29G,0.08
21,C23U U31A,0.23

row,Variant,self-cleavage
1,C23U U31C,0.22
2,C23G U51A,0.16
3,C23G U51G,0.5
4,G22U U60C,0.07
5,G22U U60A,0.17
6,A21U U49C,0.22
7,A21U U26A,0.35
8,A21U U26C,0.29
9,C23G U48C,0.29
10,C23A A57G,0.26
11,A21U U51A,0.43
12,A21U U51C,0.34
13,C23A,0.3
14,C23U,0.35
15,C23G,0.26
16,G22C U69C,0.15
17,G22A A57G,0.35
18,C23A U66A,0.1
19,C23A A28U,0.14
20,C23A A28G,0.18
